Where “and” joins values, the source holds several entries; their conditions need not be identical. Equal values may be shown once.
What was measured:
[1] = target: sLe^x-capped P-selectin glycoprotein ligand-1 (PSGL-1) (UniProt Q14242); test: cell-based or functional assay
[2] = target: T1, sLe^x-capped P-selectin glycoprotein ligand-1 (PSGL-1) (UniProt Q14242 42-412, capped with the sialyl Lewis x (sLe^x) O-glycan); test: cell-based or functional assay
T1 sequence: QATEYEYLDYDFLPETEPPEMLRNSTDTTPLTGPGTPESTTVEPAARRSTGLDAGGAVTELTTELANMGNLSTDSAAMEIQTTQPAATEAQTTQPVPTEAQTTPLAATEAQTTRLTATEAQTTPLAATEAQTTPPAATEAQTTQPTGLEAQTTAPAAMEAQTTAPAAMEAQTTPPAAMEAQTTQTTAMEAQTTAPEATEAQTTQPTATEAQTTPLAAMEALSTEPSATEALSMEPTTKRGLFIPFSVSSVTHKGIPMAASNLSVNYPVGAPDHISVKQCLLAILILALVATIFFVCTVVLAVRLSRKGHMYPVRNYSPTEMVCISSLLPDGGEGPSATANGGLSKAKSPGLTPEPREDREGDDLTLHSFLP

KPL-1, PSGL-1 N-terminus-specific antibody
numbers of bound DC organisms per PSGL-1 CHO cell after incubating PSGL-1 CHO cells with KPL-1 (fold reduction) [1]: 2 and 3

B1: OmpA (outer membrane protein A) on the surface of A. phagocytophilum DC organisms (other)
chain: CGTLLPDSNVGVGRHDLGSHRSVAFAKKVEKVYFDIGKYDLKGPGKKVILELVEQLRQDDSMYLVVIGHADATGTEEYSLALGEKRANAVKQFIIGCDKSLAPRVTTQSRGKAEPEVLVYSTDAQEVEKANAQNRRAVIVVEFAHIPRSGVADMHAPVASSITSENSNASAEGEDMEASEFSSAIAN
bacterial binding to PSGL-1 CHO cells after pretreating bacteria with anti-OmpA [2]: ~2 fold reduction
